According to patent US20160068592A1 (SEOUL NATIONAL UNIVERSITY R AND DB FOUNDATION, published 2016):

Key:
[1] = target: T1, MG4 domain mutant d332-348 Fc fusion protein (human, UniProt P01031 367-469); assay: immunoblot after SDS-PAGE
T1 construct: not shown: hinge region and CH2-CH3 domain of human IgG1
Source text: (§1) MG4 domain of the beta chain and five mutants from which the MG4 domain is sequentially removed from N-terminus of the MG4 domain were cloned. The primers were designed to add SfiI restriction sites at both the 5′ and 3′ ends (Table 13). The amplified PCR fragments were digested with SfiI and cloned into modified pCEP4 vector containing the hinge region and CH2-CH3 domain of human IgG1 at the 3′ region of the cloning site. These clones were transfected and Fc fusion proteins were purified as described in Example 5. The purified Fc fusion proteins were subjected to SDS-PAGE, and immunoblotting was performed as described above.

[2] = target: T2, MG4 domain mutant d332-378 Fc fusion protein (human, UniProt P01031 397-469); assay: immunoblot after SDS-PAGE
T2 construct: not shown: hinge region and CH2-CH3 domain of human IgG1
Source text: as §1

[3] = target: T3, MG4 domain mutant d332-396 Fc fusion protein (human, UniProt P01031 415-469); assay: immunoblot after SDS-PAGE
T3 construct: not shown: hinge region and CH2-CH3 domain of human IgG1
Source text: as §1

[4] = target: T4, Fc fusion protein having an MG4 domain (human, UniProt P01031 350-469); assay: immunoblot of beta-chain domain Fc fusion proteins
T4 construct: Amplified with MG4_F/MG4_R and cloned by SfiI into modified pCEP4; also called hMG4; MG4 domain of the C5 beta chain as Fc fusion protein; not shown: hinge region and CH2-CH3 domain of human IgG1, 3' of the cloning site

[5] = target: T5, beta chain of human C5 protein (human, UniProt P01031 19-673); assay: immunoblot, SDS-PAGE under reducing condition
T5 construct: Seen as the beta-chain band of C5 on SDS-PAGE under reducing condition; also called C5 beta-chain

B1: HRA-06-H2-1 (antibody, human IgG2, kappa, V domains shown)
VH: EVQLVESGGGLVQPGGSLRLSCAASGFSFSGRYWIQWVRQAPGKGLEWVASVWPGITGDTNYANWAKGRFTISRDDSKNTLYLQMNSLRAEDTAVYYCAREPVAWGGGLDLWGQGTLVTVSS
VL: DIQMTQSPSSLSASVGDRVTITCQASQSINNQLSWYQQKPGKAPKLLIYYASTLASGVPSRFSGSGSGTDFTLTISSLQPEDFATYYCQGSYYSGGWDYGFGQGTKVEIKR
notes: also called anti-complement C5 antibody HRA-06-H2-1; C5 Antibody (HRA-06-H2-1)
B1: no binding [1]; no binding [2]; no binding [3]. B1: binds [4]; binds [5].
